Measured values: patent EP2112167A2 (Genentech, Inc., dated 2009)

Tests used:
ErbB3 = biological target: T1, ErbB3 (human, UniProt P21860 20-1342); experiment: not described
T1 construct: whole, on cells; In the co-immunoprecipitation it is the endogenous receptor of the cells (lysates); also called HER3

ErbB4 = biological target: T2, ErbB4 (UniProt Q15303 26-649, limits assumed); experiment: not described
T2 construct: also called HER4
T2 sequence (looked up): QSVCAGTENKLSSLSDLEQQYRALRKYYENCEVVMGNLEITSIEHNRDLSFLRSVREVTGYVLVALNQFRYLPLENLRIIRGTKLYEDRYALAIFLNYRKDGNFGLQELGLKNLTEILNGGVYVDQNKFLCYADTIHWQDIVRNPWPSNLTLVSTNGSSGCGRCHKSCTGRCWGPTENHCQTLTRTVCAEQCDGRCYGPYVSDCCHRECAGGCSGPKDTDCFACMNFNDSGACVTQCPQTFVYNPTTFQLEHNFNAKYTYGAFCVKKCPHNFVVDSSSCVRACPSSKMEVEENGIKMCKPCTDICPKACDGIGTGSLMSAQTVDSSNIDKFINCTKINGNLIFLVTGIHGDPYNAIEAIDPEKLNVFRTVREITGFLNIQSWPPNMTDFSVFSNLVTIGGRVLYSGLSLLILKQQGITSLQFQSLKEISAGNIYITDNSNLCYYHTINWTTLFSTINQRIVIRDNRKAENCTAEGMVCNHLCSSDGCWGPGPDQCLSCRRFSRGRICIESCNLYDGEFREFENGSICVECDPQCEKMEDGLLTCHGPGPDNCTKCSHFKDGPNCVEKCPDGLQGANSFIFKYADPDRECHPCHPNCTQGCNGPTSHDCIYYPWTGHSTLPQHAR

EGFR = biological target: T3, EGFR (UniProt P00533 25-645, limits assumed); experiment: not described (cited: Fendly et al.)
T3 construct: also called ErbB1; epidermal growth factor receptor

Measured: binding result

T1 sequence (P21860 20-1342): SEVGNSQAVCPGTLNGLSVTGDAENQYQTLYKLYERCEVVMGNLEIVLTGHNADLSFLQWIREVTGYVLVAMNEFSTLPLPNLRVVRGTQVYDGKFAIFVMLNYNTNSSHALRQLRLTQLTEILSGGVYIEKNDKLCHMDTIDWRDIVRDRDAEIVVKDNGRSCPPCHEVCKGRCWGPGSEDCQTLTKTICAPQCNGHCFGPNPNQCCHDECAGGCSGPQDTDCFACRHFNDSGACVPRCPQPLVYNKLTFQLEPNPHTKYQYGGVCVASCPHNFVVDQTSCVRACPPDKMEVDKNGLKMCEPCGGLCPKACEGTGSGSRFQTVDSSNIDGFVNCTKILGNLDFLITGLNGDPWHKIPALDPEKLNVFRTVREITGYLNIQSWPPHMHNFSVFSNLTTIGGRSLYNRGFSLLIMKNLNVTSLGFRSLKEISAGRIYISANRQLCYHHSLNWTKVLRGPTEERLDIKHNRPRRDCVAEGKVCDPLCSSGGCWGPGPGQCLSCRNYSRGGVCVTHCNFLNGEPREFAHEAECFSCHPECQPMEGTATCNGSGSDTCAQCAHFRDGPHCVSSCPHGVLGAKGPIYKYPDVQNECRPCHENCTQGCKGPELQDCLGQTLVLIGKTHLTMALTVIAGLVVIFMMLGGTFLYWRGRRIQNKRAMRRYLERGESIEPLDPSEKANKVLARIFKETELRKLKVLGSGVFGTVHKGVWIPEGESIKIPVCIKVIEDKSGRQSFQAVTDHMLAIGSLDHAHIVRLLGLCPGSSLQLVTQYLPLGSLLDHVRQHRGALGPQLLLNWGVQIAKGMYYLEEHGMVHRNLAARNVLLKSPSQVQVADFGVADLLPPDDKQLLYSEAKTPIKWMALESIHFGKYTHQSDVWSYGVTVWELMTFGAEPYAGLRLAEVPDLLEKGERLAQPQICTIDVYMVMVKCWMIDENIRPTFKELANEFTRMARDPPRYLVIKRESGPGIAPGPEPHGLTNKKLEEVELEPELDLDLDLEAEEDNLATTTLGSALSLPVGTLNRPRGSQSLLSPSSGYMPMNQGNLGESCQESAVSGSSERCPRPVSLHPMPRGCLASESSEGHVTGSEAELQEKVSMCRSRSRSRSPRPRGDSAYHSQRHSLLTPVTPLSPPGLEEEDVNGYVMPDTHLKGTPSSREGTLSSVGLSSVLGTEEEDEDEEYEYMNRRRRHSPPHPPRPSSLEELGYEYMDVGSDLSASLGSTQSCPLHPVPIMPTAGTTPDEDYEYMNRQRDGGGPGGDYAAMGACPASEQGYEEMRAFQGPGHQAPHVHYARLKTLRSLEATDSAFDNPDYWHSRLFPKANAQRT

B1: murine monoclonal antibody 2C4 (antibody, V domains shown)
VH: EVQLQQSGPELVKPGTSVKISCKASGFTFTDYTMDWVKQSHGKSLEWIGDVNPNSGGSIYNQRFKGKASLTVDRSSRIVYMELRSLTFEDTAVYYCARNLGPSFYFDYWGQGTTLTVSS
VL: DTVMTQSHKIMSTSVGDRVSITCKASQDVSIGVAWYQQRPGQSPKLLIYSASYRYTGVPDRFTGSGSGTDFTFTISSVQAEDLAVYYCQQYYIYPYTFGGGTKLEIK
notes: Intact murine monoclonal antibody from hybridoma; also called mu 2C4; ATCC HB-12697
no binding: ErbB3 | ErbB4 | EGFR
